Data taken from patent publication US9284543B2, “Neutral active soluble truncated PH20 polypeptides and uses thereof” (Halozyme, Inc., priority 2008, dated 2016).

Experiments:
CHO-S cells = experiment: Western blot analysis of PH20 expression in media and cells after transient expression; assay type: cell-based, Chinese Hamster; settings: media versus cells
Method: The mutant PH20-HZ24 plasmids generated in Example 1 were transiently […] into CHO—S cells (derived from Chinese Hamster Ovary CHO K1 cells) using GeneJuice® (Novagen) according to the manufacturer's instructions. In short, the CHO—S cells were grown in CD CHO medium supplemented with L-glutamine. Prior to transfection, the CHO—S cells were plated in 6-well plates, with approximately 5×10^5 cells per well, and grown overnight at 37° C. with 5% CO2. The medium was then removed and the CHO—S cells were washed 2 times with 1 mL serum-free medium. GeneJuice® was mixed with serum-free media followed by the addition of 2 μg mutant-HZ24 DNA. After incubating at room temperature for 5-15 minutes, the GeneJuice®/DNA mixture was added dropwise to an individual well containing the washed CHO—S cells. After 4 hours, the medium was replaced with 1 mL CD-CHO medium supplemented with L-glutamine and the cells were incubated for 72 hours at 37° C. with 5% CO2. Following expression, the media and cells were harvested separately.
The mutant PH20-HZ24 plasmids generated in Example 1 were transiently […] into CHO—S cells using GeneJuice® (Novagen) according to the manufacturer's instructions. […]
In this example, following transient expression, as described in Example 2 above, the media and cells were harvested separately and analyzed for PH20 expression and solublility by Western blot analysis. Solubility of the C-terminus truncation mutants was determined by examining whether the expressed protein was present in the growth media or in the cells. […] Cells expressing these mutants were treated with phosphoinositol-phospholipase C (PI-PLC), which cleaves the GPI-anchor allowing the release of soluble protein into the media, and the presence of PH20 in the resulting media and cells was determined by Western blot analysis.
Non-reduced samples were run on a 4-20% Tris-Glycine gel and transferred to PVDF membrane using iBlot (Invitrogen). For the Western blot, rabbit anti-PH20 IgG (0.5 μg/mL) was used as the primary antibody and HRP-conjugated goat anti-rabbit IgG (0.1 ng/mL, Cat#DC03L, EMD) was used as the secondary antibody. Evidence of expression is determined by a band at approximately 66 kDa, corresponding to recombinant human PH20 hyaluronidase.

[1] = Microtiter hyaluronidase activity assay with biotinylated-hyaluronic acid; assay type: biochemical; settings: Table 6, 72 hour post transfection supernatant
Method: In Example 4, the hyaluronidase activity of truncated human PH20 hyaluronidase is determined using biotinylated hyaluronic acid. The free carboxyl groups on the glucuronic acid residues of hyaluronic acid are biotinylated, and the biotinylated hyaluronic acid substrate is covalently coupled to a microtiter plate. Following incubation with hyaluronidase, the residual biotinylated hyaluronic acid substrate is detected using an avidin-peroxidase reaction, and compared to that obtained following reaction with hyaluronidase standards of known activity. […] The sensitivity permits rapid measurement of hyaluronidase activity from cultured cells and biological samples with an inter-assay variation of less than 10%.
In this example, the human PH20 hyaluronidase carboxy-terminus deletion mutants were tested for their PH20 hyaluronidase activity using a microtiter assay with biotinylated-hyaluronic acid (biotinylated-HA or bHA). The human PH20 hyaluronidase carboxy-terminus deletion mutants were tested for hyaluronidase activity at both pH 7.4 and pH 5.5.
In short, a 4×BH 96-well plate was coated with biotinylated-HA (1.1 MDa). The 72 hour post transfection supernatant from cells transfected with human PH20 hyaluronidase carboxy-terminus deletion mutants was diluted in buffer at either pH 7.4 or pH 5.5 and added to individual wells of the plate and allowed to incubate at 37° C. for 90 minutes. The reaction was terminated by addition of 4M guanidine HCl. The wells were washed 4× with Phosphate Buffered Saline with Tween20 (PBST) to remove any digested biotinylated-HA followed by addition of streptavidin-HRP for 1 hour at room temperature. The wells were washed 4× with PBST and the plate was developed with TMB. The plate was read at 450 nm using an ELISA plate reader. Hyaluronidase activity (in Units/mL) was determined by interpolating the measured absorbance at 450 nm with a hyaluronidase reference standard curve. Full length mature human PH20 hyaluronidase and untransfected CHO cells were used as positive and negative controls.

Molecule	Expressed in Media (CHO-S cells)	pH 5.5 Activity [1]	pH 7.4 Activity [1]
SPAM1-IDAF: C-terminally truncated human PH20, precursor 468 aa (SEQ ID NO:32), mature 433 aa (SEQ ID NO:84) (protein, listed as Homo sapiens, HuPH20 precursor 1-468; Mature HuPH20 36-468) chain 1: MGVLKFKHIFFRSFVKSSGVSQIVFTFLLIPCCLTLNFRAPPVIPNVPFLWAWNAPSEFCLGKFDEPLDMSLFSFIGSPRINATGQGVTIFYVDRLGYYPYIDSITGVTVNGGIPQKISLQDHLDKAKKDITFYMPVDNLGMAVIDWEEWRPTWARNWKPKDVYKNRSIELVQQQNVQLSLTEATEKAKQEFEKAGKDFLVETIKLGKLLRPNHLWGYYLFPDCYNHHYKKPGYNGSCFNVEIKRNDDLSWLWNESTALYPSIYLNTQQSPVAATLYVRNRVREAIRVSKIPDAKSPLPVFAYTRIVFTDQVLKFLSQDELVYTFGETVALGASGIVIWGTLSIMRSMKSCLLLDNYMETILNPYIINVTLAAKMCSQVLCQEQGVCIRKNWNSSDYLHLNPDNFAIQLEKGGKFTVRGKPTLEDLEQFSEKFYCSCYSTLSCKEKADVKDTDAVDVCIADGVCIDAF chain 2: LNFRAPPVIPNVPFLWAWNAPSEFCLGKFDEPLDMSLFSFIGSPRINATGQGVTIFYVDRLGYYPYIDSITGVTVNGGIPQKISLQDHLDKAKKDITFYMPVDNLGMAVIDWEEWRPTWARNWKPKDVYKNRSIELVQQQNVQLSLTEATEKAKQEFEKAGKDFLVETIKLGKLLRPNHLWGYYLFPDCYNHHYKKPGYNGSCFNVEIKRNDDLSWLWNESTALYPSIYLNTQQSPVAATLYVRNRVREAIRVSKIPDAKSPLPVFAYTRIVFTDQVLKFLSQDELVYTFGETVALGASGIVIWGTLSIMRSMKSCLLLDNYMETILNPYIINVTLAAKMCSQVLCQEQGVCIRKNWNSSDYLHLNPDNFAIQLEKGGKFTVRGKPTLEDLEQFSEKFYCSCYSTLSCKEKADVKDTDAVDVCIADGVCIDAF	YES	0.6278 Units/ml	0.5625 Units/ml
SPAM1-CIDA: C-terminally truncated human PH20, precursor 467 aa (SEQ ID NO:33), mature 432 aa (SEQ ID NO:85) (protein, listed as Homo sapiens, HuPH20 precursor 1-467; Mature HuPH20 36-467) chain 1: MGVLKFKHIFFRSFVKSSGVSQIVFTFLLIPCCLTLNFRAPPVIPNVPFLWAWNAPSEFCLGKFDEPLDMSLFSFIGSPRINATGQGVTIFYVDRLGYYPYIDSITGVTVNGGIPQKISLQDHLDKAKKDITFYMPVDNLGMAVIDWEEWRPTWARNWKPKDVYKNRSIELVQQQNVQLSLTEATEKAKQEFEKAGKDFLVETIKLGKLLRPNHLWGYYLFPDCYNHHYKKPGYNGSCFNVEIKRNDDLSWLWNESTALYPSIYLNTQQSPVAATLYVRNRVREAIRVSKIPDAKSPLPVFAYTRIVFTDQVLKFLSQDELVYTFGETVALGASGIVIWGTLSIMRSMKSCLLLDNYMETILNPYIINVTLAAKMCSQVLCQEQGVCIRKNWNSSDYLHLNPDNFAIQLEKGGKFTVRGKPTLEDLEQFSEKFYCSCYSTLSCKEKADVKDTDAVDVCIADGVCIDA chain 2: LNFRAPPVIPNVPFLWAWNAPSEFCLGKFDEPLDMSLFSFIGSPRINATGQGVTIFYVDRLGYYPYIDSITGVTVNGGIPQKISLQDHLDKAKKDITFYMPVDNLGMAVIDWEEWRPTWARNWKPKDVYKNRSIELVQQQNVQLSLTEATEKAKQEFEKAGKDFLVETIKLGKLLRPNHLWGYYLFPDCYNHHYKKPGYNGSCFNVEIKRNDDLSWLWNESTALYPSIYLNTQQSPVAATLYVRNRVREAIRVSKIPDAKSPLPVFAYTRIVFTDQVLKFLSQDELVYTFGETVALGASGIVIWGTLSIMRSMKSCLLLDNYMETILNPYIINVTLAAKMCSQVLCQEQGVCIRKNWNSSDYLHLNPDNFAIQLEKGGKFTVRGKPTLEDLEQFSEKFYCSCYSTLSCKEKADVKDTDAVDVCIADGVCIDA	YES	0.4725 Units/ml	0.5535 Units/ml
